Measurements reported in IntAct's records for PubMed 23434407.

B1: Calcium-binding protein 39 (Homo sapiens), Q9Y376 (parent)
chain: MPFPFGKSHKSPADIVKNLKESMAVLEKQDISDKKAEKATEEVSKNLVAMKEILYGTNEKEPQTEAVAQLAQELYNSGLLSTLVADLQLIDFEGKKDVAQIFNNILRRQIGTRTPTVEYICTQQNILFMLLKGYESPEIALNCGIMLRECIRHEPLAKIILWSEQFYDFFRYVEMSTFDIASDAFATFKDLLTRHKLLSAEFLEQHYDRFFSEYEKLLHSENYVTKRQSLKLLGELLLDRHNFTIMTKYISKPENLKLMMNLLRDKSRNIQFEAFHVFKVFVANPNKTQPILDILLKNQAKLIEFLSKFQNDRTEDEQFNDEKTYLVKQIRDLKRPAQQEA

Variants of: B1
Conditions: with STK26, Q9P289-1
STK26, Q9P289-1, sequence (Q9P289 whole entry, looked up): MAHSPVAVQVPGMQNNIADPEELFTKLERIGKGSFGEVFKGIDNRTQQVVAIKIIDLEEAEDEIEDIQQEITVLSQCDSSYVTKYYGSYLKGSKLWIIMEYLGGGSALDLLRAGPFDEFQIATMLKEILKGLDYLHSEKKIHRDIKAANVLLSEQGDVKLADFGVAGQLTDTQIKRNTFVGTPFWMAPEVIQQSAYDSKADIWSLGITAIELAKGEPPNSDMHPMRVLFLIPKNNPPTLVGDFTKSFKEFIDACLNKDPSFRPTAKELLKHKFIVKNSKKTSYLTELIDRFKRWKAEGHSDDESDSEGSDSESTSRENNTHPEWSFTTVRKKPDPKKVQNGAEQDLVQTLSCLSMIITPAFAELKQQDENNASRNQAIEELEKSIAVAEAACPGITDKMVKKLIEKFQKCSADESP

effect of a mutation on the interaction | Variant
decreasing interaction strength | MPFPFGKSHKSPADIVKNLKESMAVLEKQDISDKKAEKATEEVSKNLVAMKEILYGTNEKEPQTEAVAQLAQELYNSGLLSTLVADLQLIDFEGKKDVAQIFNNILRRQIGTRTPTVEYICTQQNILFMLLKGYESPEIALNCGIMLRECIRHEPLAKIILWSEQFYDFFRYVEMSTFDIASDAFATFKDLLTRHKLLSAEFLEQHYDRFFSEYEKLLHSENYVTKAQSLKLLGELLLDRHNFTIMTKYISKPENLKLMMNLLRDKSRNIQFEAFHVFKVFVANPNKTQPILDILLKNQAKLIEFLSKFQNDRTEDEQFNDEKTYLVKQIRDLKRPAQQEA [R227A]
decreasing interaction strength | MPFPFGKSHKSPADIVKNLKESMAVLEKQDISDKKAEKATEEVSKNLVAMKEILYGTNEKEPQTEAVAQLAQELYNSGLLSTLVADLQLIDFEGKKDVAQIFNNILRRQIGTRTPTVEYICTQQNILFMLLKGYESPEIALNCGIMLRECIRHEPLAKIILWSEQFYDFFRYVEMSTFDIASDAFATFKDLLTRHKLLSAEFLEQHYDRFFSEYEKLLHSENYVTKRQSLKLLGELLLDRHNFTIMTKYISKPENLKLMENLLRDKSRNIQFEAFHVFKVFVANPNKTQPILDILLKNQAKLIEFLSKFQNDRTEDEQFNDEKTYLVKQIRDLKRPAQQEA [M260E]

More lines, now with the values behind:

Variant | effect of a mutation on the interaction
MPFPFGKSHKSPADIVKNLKESMAVLEKQDISDKKAEKATEEVSKNLVAMKEILYGTNEKEPQTEAVAQLAQELYNSGLLSTLVADLQLIDFEGKKDVAQIFNNILRRQIGTRTPTVEYICTQQNILFMLLKGYESPEIALNCGIMLRECIRHEPLAKIILWSEQFYDFFRYVEMSTEDIASDAFATFKDLLTRHKLLSAEFLEQHYDRFFSEYEKLLHSENYVTKRQSLKLLGELLLDRHNFTIMTKYISKPENLKLMMNLLRDKSRNIQFEAFHVFKVFVANPNKTQPILDILLKNQAKLIEFLSKFQNDRTEDEQFNDEKTYLVKQIRDLKRPAQQEA [F178E] | decreasing interaction strength
MPFPFGKSHKSPADIVKNLKESMAVLEKQDISDKKAEKATEEVSKNLVAMKEILYGTNEKEPQTEAVAQLAQELYNSGLLSTLVADLQLIDFEGKKDVAQIFNNILRRQIGTRTPTVEYICTQQNILFMLLKGYESPEIALNCGIMLRECIRHEPLAKIILWSEQFYDFFRYVEMSTEDIASDAFATFKDLLTRHKLLSAEFLEQHYDRFFSEYEKLLHSENYETKRQSLKLLGELLLDRHNFTIMTKYISKPENLKLMMNLLRDKSRNIQFEAFHVFKVFVANPNKTQPILDILLKNQAKLIEFLSKFQNDRTEDEQFNDEKTYLVKQIRDLKRPAQQEA [F178E;V224E] | decreasing interaction strength
MPFPFGKSHKSPADIVKNLKESMAVLEKQDISDKKAEKATEEVSKNLVAMKEILYGTNEKEPQTEAVAQLAQELYNSGLLSTLVADLQLIDFEGKKDVAQIFNNILRRQIGTRTPTVEYICTQQNILFMLLKGYESPEIALNCGIMLRECIRHEPLAKIILWSEQFYDFFRYVEMSTFDIASDAFATFKDLLTRHKLLSAEFLEQHYDRFFSEYEKLLHSENAVTKRQSLKLLGELLLDRHNFTIMTKYISKPENLKLMMNLLRDKSRNIQFEAFHVFKVFVANPNKTQPILDILLKNQAKLIEFLSKFQNDRTEDEQFNDEKTYLVKQIRDLKRPAQQEA [Y223A] | decreasing interaction strength

Variants of: B1
Conditions: with STK26, Q9P289-1
Remark: another data set of the same source

effect of a mutation on the interaction | Variant
disrupting interaction strength | MPFPFGKSHKSPADIVKNLKESMAVLEKQDISDKKAEKATEEVSKNLVAMKEILYGTNEKEPQTEAVAQLAQELYNSGLLSTLVADLQLIDFEGKKDVAQIFNNILRRQIGTRTPTVEYICTQQNILFMLLKGYESPEIALNCGIMLRECIRHEPLAKIILWSEQFYDFFRYVEMSTEDIASDAFATFKDLLTRHKLLSAEFLEQHYDRFFSEYEKLLHSENYETKRQSLKLLGELLLDRHNFTIMTKYISKPENLKLMMNLLRDKSRNIQFEAFHVFKVFVANPNKTQPILDILLKNQAKLIEFLSKFQNDRTEDEQFNDEKTYLVKQIRDLKRPAQQEA [F178E;V224E]
disrupting interaction strength | MPFPFGKSHKSPADIVKNLKESMAVLEKQDISDKKAEKATEEVSKNLVAMKEILYGTNEKEPQTEAVAQLAQELYNSGLLSTLVADLQLIDFEGKKDVAQIFNNILRRQIGTRTPTVEYICTQQNILFMLLKGYESPEIALNCGIMLRECIRHEPLAKIILWSEQFYDFFRYVEMSTFDIASDAFATFKDLLTRHKLLSAEFLEQHYDRFFSEYEKLLHSENYVTKRQSLKLLGELLLDRHNFTIMTKYISKPENLKLMENLLRDKSRNIQFEAFHVFKVFVANPNKTQPILDILLKNQAKLIEFLSKFQNDRTEDEQFNDEKTYLVKQIRDLKRPAQQEA [M260E]
